What was measured:
[1] = biological target: MBP-5-HT3A-ICD fusion protein (cytoplasmic domain of the mouse 5-HT3A receptor fused to the C-terminus of maltose binding protein) (mouse); experiment: SEC; Superdex 200 10/300 GL, 20 mM HEPES, 150 mM NaCl, 0.02% NaN3, pH 7.4; weight from calibration with standard proteins
[2] = biological target: MBP-5-HT3A-ICD fusion protein (cytoplasmic domain of the mouse 5-HT3A receptor fused to the C-terminus of maltose binding protein) (mouse); experiment: cross-linking; glutaraldehyde by vapor diffusion at 30 °C, 0.5 μg purified protein in buffer B; resolved by SDS-PAGE with Western blot (anti-MBP) or denaturing capillary gel electrophoresis
[3] = biological target: MBP-5-HT3A-ICD fusion protein (cytoplasmic domain of the mouse 5-HT3A receptor fused to the C-terminus of maltose binding protein) (mouse); experiment: SEC-MALS; Superdex 200 HR 10/300 GL, 20 mM HEPES, 150 mM NaCl, 5 mM maltose, 0.01% NaN3, pH 7.4, ambient temperature, 0.1-1.0 mg protein loaded

Measured: stoichiometry N

MBP-5-HT3A-ICD fusion protein (cytoplasmic domain of the mouse 5-HT3A receptor fused to the C-terminus of maltose binding protein) (domain or fragment)
5: [1] | [2] | [3]

Reference: paper PMC4820698
